{"source": "patent US6630572", "key": {"[1]": {"biological_target": "high-affinity cell surface thrombin receptor on NIL cells (hamster fibroblasts) (hamster)", "assay": "cell-based or functional assay"}, "[2]": {"biological_target": "high-affinity cell surface thrombin receptor on mouse embryo (ME) cells (mouse) (UniProt P30558)", "assay": "cell-based or functional assay"}, "[3]": {"biological_target": "high-affinity cell surface thrombin receptor on mouse embryo (ME) cells (mouse) (UniProt P30558)", "assay": "competition with [^125I]-alpha-thrombin (1 nM) on quiescent ME cells"}, "[4]": {"biological_target": "high-affinity cell surface thrombin receptor on mouse embryo (ME) cells (mouse) (UniProt P30558)", "assay": "competition with [^125I]-alpha-thrombin (1 nM) on quiescent ME cells; at 40 nM peptide"}, "[5]": {"biological_target": "high-affinity cell surface thrombin receptor on mouse embryo (ME) cells (mouse) (UniProt P30558)", "assay": "competition with 0.3 nM [^125I]-alpha-thrombin on ME cells; p508-530 from 8 to 4000 nM"}, "[6]": {"biological_target": "high-affinity cell surface thrombin receptor on mouse embryo (ME) cells (mouse) (UniProt P30558)", "assay": "Scatchard analysis of direct binding of [^125I]-labelled peptide to cells (data not shown)"}, "[7]": {"biological_target": "high-affinity cell surface thrombin receptor on mouse embryo (ME) cells (mouse) (UniProt P30558)", "assay": "competition with [^125I]-alpha-thrombin (1 nM) for specific binding to quiescent ME cells, 23 C"}, "[8]": {"biological_target": "high-affinity cell surface thrombin receptor on mouse embryo (ME) cells (mouse) (UniProt P30558)", "assay": "competition with [^125I]-alpha-thrombin on ME cells"}, "[9]": {"biological_target": "high-affinity cell surface thrombin receptor on mouse embryo (ME) cells (mouse) (UniProt P30558)", "assay": "competition with [^125I]-alpha-thrombin on ME cells; reference p508-530"}, "[10]": {"biological_target": "high-affinity cell surface thrombin receptor on mouse embryo (ME) cells (mouse) (UniProt P30558)", "assay": "competition with [^125I]-alpha-thrombin (1 nM) on quiescent ME cells; at 800 nM peptide"}}, "note": "“And” between values parts separate entries of the source, which are not always exact repeats. Equal entries are not always repeated."}
{"substance": "synthetic peptide p508-530 (residues 508 to 530 of human prothrombin)", "values": [{"measurement": "increase in DNA synthesis over controls in NIL cells in the presence of 25 ng/ml PMA", "setting": "[1]", "result": 3.5, "unit": "fold"}, {"measurement": "concentration of p508-530 at which stimulation of ME cells was observed", "setting": "[2]", "result": "12.5 nM and 100 nM"}, {"measurement": "increase in incorporation of [^3H]-thymidine into DNA in ME cells, 0.1 uM p508-530 with 2 nM alpha-thrombin, against cultures treated with alpha-thrombin alone", "setting": "[2]", "result": "> 2", "unit": "fold"}, {"measurement": "increase in incorporation of [^3H]-thymidine into DNA in ME cells, 0.1 uM p508-530 with 2 nM alpha-thrombin, against untreated cultures", "setting": "[2]", "result": 6, "unit": "fold"}, {"measurement": "concentration at Maximal % Inhibition", "setting": "[3]", "result": 40, "unit": "nM"}, {"measurement": "Maximal % Inhibition", "setting": "[4]", "result": 78, "unit": "%"}, {"measurement": "percent of specific [^125I]-alpha-thrombin binding competed", "setting": "[5]", "result": "30 to 70", "unit": "%"}, {"measurement": "Kd", "setting": "[6]", "result": 0.06, "unit": "µM"}, {"measurement": "Concentration Required for 30% Inhibition", "setting": "[7]", "result": 6, "unit": "nM"}]}
{"substance": "synthetic peptide p519-530 (residues 519 to 530 of the B-chain region of human prothrombin)", "values": [{"measurement": "percent of [^125I]-alpha-thrombin binding competed", "setting": "[8]", "result": "30 to 50", "unit": "%"}, {"measurement": "concentration at Maximal % Inhibition", "setting": "[3]", "result": 800, "unit": "nM"}, {"measurement": "fold higher concentration for 30% inhibition than p508-530", "setting": "[9]", "result": 33, "unit": "fold"}, {"measurement": "Maximal % Inhibition", "setting": "[10]", "result": 51, "unit": "%"}, {"measurement": "Concentration Required for 30% Inhibition", "setting": "[7]", "result": 200, "unit": "nM"}]}
